Test [1] relates to TILs. Put plainly: In vitro GM-CSF stimulation of TILs from large tumor-bearing mice, surface marker staining. In kind it is cell-based, mouse. The conditions noted are these: GM-CSF 100 ng/ml for 5 days. The method, then:
The ability of in vitro stimulation with GM-CSF to promote the differentiation of tumor infiltrating lymphocytes (TILs) into dendritic cells or macrophages by was assessed. The TILs were isolated from large tumor-bearing mice, separated on a lymphocyte separation gradient, cultured with or without GM-CSF (100 ng/ml) for 5 days, and then stained with various cell surface markers. A reproducibly high percentage of Gr-1^+ cells was resent in the TIL population (65.5%), while the percentage of dendritic cells in the TIL population was very low (0.31%); some macrophages (14.9%) were also present in the TIL population.

In test [2] the test system is Fr.II cells derived from the bone marrow of MCA26 tumor-bearing mice. Put plainly: In vitro differentiation of bone marrow Fr.II myeloid progenitor cells, flow cytometry. The format is cell-based, mouse. Conditions: 10 days GM-CSF, then additional 24 hours. The method, then:
FIG. 19. Immunostaining of DCs generated from different culture conditions. BM Fr.II cells derived from naive and MCA-26 tumor bearing mice were cultured with mGM-CSF for 10 days. Non-adherent cells were harvested and cultured in the presence of mGM-CSF or mGM-CSF and anti-CD40 mAb ([…], FGK45 clone) for additional 24 hours. Non-adherent cells were stained and analyzed for the expression of various surface molecules by flow cytometry. Mean±SD is obtained from three independent experiments.
The ability of Fr.II cells derived from the bone marrow of MCA26 tumor-bearing mice to differentiate into dendritic cells when cultured under various conditions was assessed. Fr.II cells from derived the bone marrow of tumor-free or MCA26 tumor-bearing mice were cultured for 10 days with GM-CSF. Then non-adherent cells were harvested and cultured for additional 24 hours in the presence of GM-CSF or GM-CSF and anti-CD40 monoclonal antibody. The non-adherent cells were stained and analyzed for the expression of various cell surface molecules by flow cytometry. The expression of CD40, CD80, and MHC class II was relatively low in the tumor-bearing mice. However, after culturing the Fr. II cells with GM-CSF or GM-CSF and anti-CD40 monoclonal antibody, the expression of CD40, CD 80, CD11c and MHC class II by the Fr. […]

B1: GM-CSF: murine granulocyte macrophage colony-stimulating factor added to cultures (protein, UniProt P01587 18-141, looked up)
Granulocyte-macrophage …: APTRSPITVTRPWKHVEAIKEALNLLDDMPVTLNEEVEVVSNEFSFKKLTCVQTRLKIFEQGLRGNFTKLKGALNMTASYYQTYCPPTPETDCETQVTTYADFIDSLKTFLTDIPFECKKPGQK
Regarding B1, in test [1], the “Gr-1^+ cells in the TIL population” value is recorded as 42.7%, the “dendritic cells in the TIL population” value was 13.9% and the “macrophages in the TIL population” value was 24.3%. Further, the “expression of CD40, CD 80, CD11c and MHC class II by the Fr. II cells” value in test [2] is on record as “significantly increased”.

Source of the values: patent publication US20030035790A1, “Combination therapy for the prevention or treatment of cancer, inflammatory disorders or infectious diseases in a subject” (priority 1999, published 2003).
